In PMC3940198:

Biological target: Burkholderia cenocepacia cytosolic carboxypeptidase (BcCCP) (Burkholderia cenocepacia J2315)
Experiment: SEC-MALS; Superdex 200 10/300, 50 mM Tris-HCl, 250 mM NaCl pH 7.5; Wyatt miniDAWN TREOS and Optilab T-rEX detectors

“Burkholderia cenocepacia cytosolic carboxypeptidase (BcCCP) (enzyme)” was tested, and the stoichiometry N was 4.
